# The supplement of paper PMC7877785
# ± gives the uncertainty stated by the source.
# Assay: self-splicing fitness, log relative to wild type (ln ratio); higher = more splicing; Tetrahymena group I intron in knt gene, E. coli kanamycin selection, DiMSum; sequences stand for … in CUCUCU…GGAGGGAAAAGUUAUCAGGCAUGCACCUGGUAGCUAGUCUUUAAACCAAUAGAUUGCAUCGGUUUAAAAGGCAAGACCGUCAAAUUGCGGGAAAGGGGUCAACAGCCGUUCAGUACCAAGUCUCAGGGGAAACUUUGAGAUGGCCUUGCAAAGGGUAUGGUAAUAAGCUGACGGACAUGGUCCUAACCACGCAGCCAAGUCCUAAGUCAACAGAUCUUCUGUUGAUAUGGAUGCAGUUCACAGACUAAAUGUCGGUCGGGGAAGAUGUAUUCUUCUCAUAAGAUAUAGUCGGACCUCUCCUUAAUGGGAGCUAGCGGAUGAAGUGAUGCAACACUGGAGCCGCUGGGAACUAAUUUGUAUGCGAAAGUAUAUUGAUUAGUUUUGGAGUACUCGUGGUCG
# Method in brief: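 Pooled colonies went to amplicon sequencing on an Illumina HiSeq 2500 after six replicate transformations. The plates were LB agar with 100 μg/mL carbenicillin, 50 μM IPTG and 0.2% rhamnose, with or without 25 μg/mL kanamycin, incubated overnight at 37°C or 30°C. The E. coli BL21(DE3) library had all eight P1ex-region intron nucleotides randomised, the intron placed in the knt kanamycin-resistance gene on pET-22b(+). DiMSum fitness is the error-weighted combination of replicate fold changes, kanamycin against none, normalised to wild type.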
Sequence,self-splicing fitness (ln) (30 °C),self-splicing fitness (ln) (37 °C)
AUGAAGCAAUAUUACGAAGG,-2.57 ± 0.18,-0.569 ± 0.19
AUGAAGCAAUAUUACGAAGU,-1.21 ± 0.1,-0.533 ± 0.12
AUGAAGCAAUAUUACGACAG,0.129 ± 0.068,0.414 ± 0.095
AUGAAGCAAUAUUACGAGCA,-0.665 ± 0.084,-0.299 ± 0.083
AUGAAGCAAUAUUACGCAUA,-0.0747 ± 0.071,-0.57 ± 0.082
AUGAAGCAAUAUUACGCAUG,-0.801 ± 0.077,0.175 ± 0.085
AUGAAGCAAUAUUACGCGUA,-0.537 ± 0.061,-0.226 ± 0.07
AUGAAGCAAUAUUACGCUUU,-3.68 ± 0.2,-2.11 ± 0.21
AUGAAGCAAUAUUACGGAUC,-0.696 ± 0.09,-0.0788 ± 0.099
AUGAAGCAAUAUUACGGGAA,-1.83 ± 0.11,-0.953 ± 0.14
AUGAAGCAAUAUUACGGUAA,-1.22 ± 0.065,-0.5 ± 0.088
AUGAAGCAAUAUUACGGUCU,-0.0448 ± 0.069,0.658 ± 0.087
AUGAAGCAAUAUUACGUACC,-0.639 ± 0.067,0.16 ± 0.1
AUGAAGCAAUAUUACGUCAU,-2.43 ± 0.093,-1.19 ± 0.083
AUGAAGCAAUAUUACGUCCC,0.721 ± 0.15,-0.534 ± 0.14
AUGAAGCAAUAUUACGUGUG,-1.18 ± 0.059,-0.763 ± 0.078
AUGCAGCAAUAUUACGAAUG,-2.15 ± 0.17,-2.51 ± 0.28
AUGCAGCAAUAUUACGACCG,-1.66 ± 0.29,-1.07 ± 0.3
AUGCAGCAAUAUUACGACUA,-0.708 ± 0.12,-0.187 ± 0.11
AUGCAGCAAUAUUACGAGGC,-1.94 ± 0.23,-2.34 ± 0.33
AUGCAGCAAUAUUACGAUCG,-1.8 ± 0.084,-1.16 ± 0.11
AUGCAGCAAUAUUACGCAAA,-2.6 ± 0.13,-0.0469 ± 0.14
AUGCAGCAAUAUUACGCUUA,-1.26 ± 0.1,-0.294 ± 0.094
AUGCAGCAAUAUUACGGACU,-0.194 ± 0.073,0.429 ± 0.094
AUGCAGCAAUAUUACGGAGA,-4.25 ± 0.44,-4.21 ± 0.34

Sequence,self-splicing fitness (ln) (30 °C),self-splicing fitness (ln) (37 °C)
AUGCAGCAAUAUUACGGAUA,-2.99 ± 0.17,-2.22 ± 0.17
AUGCAGCAAUAUUACGGAUU,-1.57 ± 0.071,-1.14 ± 0.1
AUGCAGCAAUAUUACGGCGA,-0.313 ± 0.1,0.239 ± 0.13
AUGCAGCAAUAUUACGGCUA,0.452 ± 0.11,0.366 ± 0.12
AUGCAGCAAUAUUACGGGCA,-0.699 ± 0.11,0.227 ± 0.12
AUGCAGCAAUAUUACGUACU,0.346 ± 0.055,0.441 ± 0.07
AUGCAGCAAUAUUACGUGGG,,-2.97 ± 0.28
AUGCAGCAAUAUUACGUUAU,-2.45 ± 0.079,-1.24 ± 0.078
AUGCAGCAAUAUUACGUUGC,-4.01 ± 0.18,-2.25 ± 0.24
AUGGAGCAAUAUUACGAGGG,-3.96 ± 0.35,-2.55 ± 0.42
AUGGAGCAAUAUUACGCCUU,-2.22 ± 0.18,-2.41 ± 0.3
AUGGAGCAAUAUUACGCGUG,-3.24 ± 0.16,-1.15 ± 0.14
AUGGAGCAAUAUUACGCUAU,-3.89 ± 0.15,-2.4 ± 0.22
AUGGAGCAAUAUUACGGCUU,-2.98 ± 0.29,-1.83 ± 0.38
AUGGAGCAAUAUUACGGGCC,-2.63 ± 0.39,
AUGGAGCAAUAUUACGGGUC,-4.63 ± 0.29,-3.52 ± 0.28
AUGGAGCAAUAUUACGGUGA,-2.9 ± 0.44,
AUGGAGCAAUAUUACGUUAC,-3.1 ± 0.25,
AUGGAGCAAUAUUACGUUGA,,-2.38 ± 0.2
AUGGAGCAAUAUUACGUUGU,-2.69 ± 0.17,-2.48 ± 0.23
AUGUAGCAAUAUUACGAAUA,-2.75 ± 0.26,-1.22 ± 0.21
AUGUAGCAAUAUUACGACUU,-0.0543 ± 0.089,-0.312 ± 0.088
AUGUAGCAAUAUUACGAGCU,-0.582 ± 0.14,-0.987 ± 0.2
AUGUAGCAAUAUUACGCACC,-1.63 ± 0.15,-0.228 ± 0.18
AUGUAGCAAUAUUACGCCCG,-0.83 ± 0.22,-0.891 ± 0.33

Sequence,self-splicing fitness (ln) (30 °C),self-splicing fitness (ln) (37 °C)
AUGUAGCAAUAUUACGCCGU,-1.43 ± 0.14,-0.29 ± 0.14
AUGUAGCAAUAUUACGCGUA,-1.66 ± 0.13,-0.708 ± 0.14
AUGUAGCAAUAUUACGCGUU,-3.57 ± 0.18,-1.99 ± 0.17
AUGUAGCAAUAUUACGCUUC,-2.5 ± 0.23,-2.2 ± 0.28
AUGUAGCAAUAUUACGGAAC,,-1.16 ± 0.41
AUGUAGCAAUAUUACGGACG,-3.24 ± 0.2,-1.09 ± 0.13
AUGUAGCAAUAUUACGGACU,-0.734 ± 0.11,-0.231 ± 0.14
AUGUAGCAAUAUUACGGCAG,-0.715 ± 0.073,0.288 ± 0.11
AUGUAGCAAUAUUACGGGGA,-2.26 ± 0.21,-2.48 ± 0.21
AUGUAGCAAUAUUACGGGUC,-3.49 ± 0.4,-2.95 ± 0.43
AUGUAGCAAUAUUACGGUAU,-1.24 ± 0.093,-0.0188 ± 0.11
AUGUAGCAAUAUUACGGUGG,-3.1 ± 0.27,-2.77 ± 0.24
AUGUAGCAAUAUUACGUAGU,-2.89 ± 0.18,-1.42 ± 0.15
AUGUAGCAAUAUUACGUCAC,,-2.81 ± 0.47
AUGUAGCAAUAUUACGUCAG,-3.5 ± 0.18,-2.25 ± 0.16
AUGUAGCAAUAUUACGUGCA,-0.921 ± 0.13,-1.01 ± 0.12
AUGUAGCAAUAUUACGUUGC,-3.43 ± 0.27,-3.08 ± 0.32
AUGUAGCAAUAUUACGUUUG,-3.35 ± 0.23,-2.72 ± 0.25
AUUAAGCAAUAUUACGAACU,-0.318 ± 0.12,0.315 ± 0.16
AUUAAGCAAUAUUACGACUU,0.276 ± 0.082,-0.0124 ± 0.11
AUUAAGCAAUAUUACGAUCG,-2.33 ± 0.12,-0.671 ± 0.12
AUUAAGCAAUAUUACGAUGA,-0.766 ± 0.11,-0.613 ± 0.12
AUUAAGCAAUAUUACGCACA,-0.525 ± 0.12,-0.202 ± 0.13
AUUAAGCAAUAUUACGCACG,-1.37 ± 0.16,-0.648 ± 0.17
AUUAAGCAAUAUUACGCAUA,-1.98 ± 0.24,-1.32 ± 0.22

Sequence,self-splicing fitness (ln) (30 °C),self-splicing fitness (ln) (37 °C)
AUUAAGCAAUAUUACGCCAC,,-1.53 ± 0.39
AUUAAGCAAUAUUACGCCCU,-0.0606 ± 0.33,-0.149 ± 0.28
AUUAAGCAAUAUUACGCCGC,,-2.04 ± 0.47
AUUAAGCAAUAUUACGCCUU,-0.293 ± 0.16,0.373 ± 0.19
AUUAAGCAAUAUUACGCGAG,-1.27 ± 0.1,-0.38 ± 0.097
AUUAAGCAAUAUUACGCGAU,-3.33 ± 0.23,-2.63 ± 0.34
AUUAAGCAAUAUUACGCUAG,-1.96 ± 0.16,-0.736 ± 0.18
AUUAAGCAAUAUUACGGGAG,-3.06 ± 0.23,-1.89 ± 0.18
AUUAAGCAAUAUUACGGUGA,-1.3 ± 0.13,-0.588 ± 0.14
AUUAAGCAAUAUUACGGUUC,-3.04 ± 0.35,-0.609 ± 0.31
AUUAAGCAAUAUUACGUAAA,-1.29 ± 0.12,-1.15 ± 0.14
AUUAAGCAAUAUUACGUAGU,-1.53 ± 0.071,-0.166 ± 0.085
AUUAAGCAAUAUUACGUCAG,-3.01 ± 0.24,-1.85 ± 0.21
AUUAAGCAAUAUUACGUGAG,-0.882 ± 0.049,-0.33 ± 0.081
AUUAAGCAAUAUUACGUGCU,-1.58 ± 0.15,-0.835 ± 0.14
AUUCAGCAAUAUUACGACAG,-2.39 ± 0.16,-0.849 ± 0.17
AUUCAGCAAUAUUACGACGA,-0.537 ± 0.1,-0.53 ± 0.12
AUUCAGCAAUAUUACGACGC,-0.246 ± 0.11,0.397 ± 0.14
AUUCAGCAAUAUUACGACUU,-0.122 ± 0.1,0.27 ± 0.11
AUUCAGCAAUAUUACGAGAG,-2.65 ± 0.11,-1.38 ± 0.1
AUUCAGCAAUAUUACGAGUG,-1.37 ± 0.062,-1.02 ± 0.082
AUUCAGCAAUAUUACGAUCC,-0.321 ± 0.19,-0.287 ± 0.25
AUUCAGCAAUAUUACGAUUA,-0.138 ± 0.097,0.146 ± 0.089
